Assay results published in the supplement of paper PMC9112550, “Optimization of the antimicrobial peptide Bac7 by deep mutational scanning” (BMC Biology, 2022).

System: Escherichia coli TOP10
Assay: shrunken log2 fold change of peptide-encoding DNA abundance (4.5 h post-induction vs induction); higher = less antimicrobial activity (less host growth inhibition)
Conditions: time post-induction: 4.5 h; library: site-saturation at positions 5, 18, 19, 20
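Also: peptides expressed intracellularly from a pBAD plasmid library in pooled LB shake-flask culture, induced with 0.3% L-arabinose, DNA abundance read by NGS, three biological replicates, DESeq2 with apeglm shrinkage.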

| Sequence | shrunken log2 fold change |
| --- | --- |
| RRIRFRPPRLPRPRPRPVHTPRP | -0.0075 |
| RRIRFRPPRLPRPRPRPVLPPRP | -0.371 |
| RRIRFRPPRLPRPRPRPVLYPRP | -0.457 |
| RRIRFRPPRLPRPRPRPVNVPRP | -0.404 |
| RRIRFRPPRLPRPRPRPVPLPRP | -0.118 |
| RRIRFRPPRLPRPRPRPVRRPRP | 0.122 |
| RRIRFRPPRLPRPRPRPVRSPRP | 0.234 |
| RRIRFRPPRLPRPRPRPVSGPRP | -0.0636 |
| RRIRFRPPRLPRPRPRPVTNPRP | -0.0718 |
| RRIRFRPPRLPRPRPRPVVVPRP | -0.0228 |
| RRIRFRPPRLPRPRPRPVWNPRP | -0.0763 |
| RRIRFRPPRLPRPRPRPVWSPRP | 0.175 |
| RRIRFRPPRLPRPRPRPVYEPRP | -0.66 |
| RRIRFRPPRLPRPRPRPVYFPRP | -0.399 |
| RRIRFRPPRLPRPRPRPVYPPRP | -0.477 |
| RRIRFRPPRLPRPRPRPWAAPRP | 0.385 |
| RRIRFRPPRLPRPRPRPWCFPRP | -0.282 |
| RRIRFRPPRLPRPRPRPWCKPRP | -0.0278 |
| RRIRFRPPRLPRPRPRPWDWPRP | 0.149 |
| RRIRFRPPRLPRPRPRPWEPPRP | -0.373 |
| RRIRFRPPRLPRPRPRPWETPRP | 0.0299 |
| RRIRFRPPRLPRPRPRPWFTPRP | -0.574 |
| RRIRFRPPRLPRPRPRPWHEPRP | -0.00448 |
| RRIRFRPPRLPRPRPRPWHPPRP | -0.409 |
| RRIRFRPPRLPRPRPRPWIDPRP | -0.0232 |

| Sequence | shrunken log2 fold change |
| --- | --- |
| RRIRFRPPRLPRPRPRPWIYPRP | -0.662 |
| RRIRFRPPRLPRPRPRPWNNPRP | -0.0242 |
| RRIRFRPPRLPRPRPRPWPEPRP | 0.0713 |
| RRIRFRPPRLPRPRPRPWRKPRP | -0.0813 |
| RRIRFRPPRLPRPRPRPWSMPRP | -0.548 |
| RRIRFRPPRLPRPRPRPWSVPRP | -0.0111 |
| RRIRFRPPRLPRPRPRPWVFPRP | -0.00336 |
| RRIRFRPPRLPRPRPRPWVTPRP | -0.0635 |
| RRIRFRPPRLPRPRPRPWWFPRP | -0.395 |
| RRIRFRPPRLPRPRPRPWWYPRP | -0.238 |
| RRIRFRPPRLPRPRPRPWYEPRP | -0.0991 |
| RRIRFRPPRLPRPRPRPWYHPRP | -0.14 |
| RRIRFRPPRLPRPRPRPYAIPRP | -0.536 |
| RRIRFRPPRLPRPRPRPYCDPRP | -0.535 |
| RRIRFRPPRLPRPRPRPYCGPRP | -0.306 |
| RRIRFRPPRLPRPRPRPYDAPRP | -1.06 |
| RRIRFRPPRLPRPRPRPYFPPRP | -0.599 |
| RRIRFRPPRLPRPRPRPYHDPRP | -0.722 |
| RRIRFRPPRLPRPRPRPYHIPRP | -0.081 |
| RRIRFRPPRLPRPRPRPYHLPRP | -0.643 |
| RRIRFRPPRLPRPRPRPYHVPRP | 0.0272 |
| RRIRFRPPRLPRPRPRPYIDPRP | -0.348 |
| RRIRFRPPRLPRPRPRPYKEPRP | -0.0907 |
| RRIRFRPPRLPRPRPRPYMGPRP | -0.225 |
| RRIRFRPPRLPRPRPRPYMSPRP | -0.401 |

| Sequence | shrunken log2 fold change |
| --- | --- |
| RRIRFRPPRLPRPRPRPYMYPRP | -0.635 |
| RRIRFRPPRLPRPRPRPYPLPRP | -0.604 |
| RRIRFRPPRLPRPRPRPYQHPRP | -0.898 |
| RRIRFRPPRLPRPRPRPYREPRP | -0.468 |
| RRIRFRPPRLPRPRPRPYSPPRP | -0.324 |
| RRIRFRPPRLPRPRPRPYSQPRP | -0.411 |
| RRIRFRPPRLPRPRPRPYSTPRP | 0.0586 |
| RRIRFRPPRLPRPRPRPYVEPRP | -0.315 |
| RRIRFRPPRLPRPRPRPYWAPRP | -0.328 |
| RRIRFRPPRLPRPRPRPYYKPRP | -0.207 |
| RRIRFRPPRLPRPRPRPYYRPRP | 0.0478 |
| RRIRGRPPRLPRPRPRPAFCPRP | 0.731 |
| RRIRGRPPRLPRPRPRPAFPPRP | 0.313 |
| RRIRGRPPRLPRPRPRPAGFPRP | 0.775 |
| RRIRGRPPRLPRPRPRPAGKPRP | 0.338 |
| RRIRGRPPRLPRPRPRPAGPPRP | 0.644 |
| RRIRGRPPRLPRPRPRPAGVPRP | 0.742 |
| RRIRGRPPRLPRPRPRPAHDPRP | 0.643 |
| RRIRGRPPRLPRPRPRPAKFPRP | 0.549 |
| RRIRGRPPRLPRPRPRPAMWPRP | 1.02 |
| RRIRGRPPRLPRPRPRPANAPRP | 0.694 |
| RRIRGRPPRLPRPRPRPANKPRP | 0.209 |
| RRIRGRPPRLPRPRPRPANTPRP | 0.152 |
| RRIRGRPPRLPRPRPRPAPMPRP | 1.1 |
| RRIRGRPPRLPRPRPRPAPRPRP | 1.85 |

| Sequence | shrunken log2 fold change |
| --- | --- |
| RRIRGRPPRLPRPRPRPAQLPRP | 0.435 |
| RRIRGRPPRLPRPRPRPASLPRP | 0.472 |
| RRIRGRPPRLPRPRPRPATNPRP | 0.766 |
| RRIRGRPPRLPRPRPRPAVNPRP | 0.402 |
| RRIRGRPPRLPRPRPRPAYNPRP | -0.34 |
| RRIRGRPPRLPRPRPRPCAIPRP | 2.08 |
| RRIRGRPPRLPRPRPRPCCFPRP | 0.773 |
| RRIRGRPPRLPRPRPRPCCQPRP | 0.181 |
| RRIRGRPPRLPRPRPRPCDIPRP | -0.00533 |
| RRIRGRPPRLPRPRPRPCDRPRP | 0.00287 |
| RRIRGRPPRLPRPRPRPCEEPRP | 0.742 |
| RRIRGRPPRLPRPRPRPCEQPRP | 0.48 |
| RRIRGRPPRLPRPRPRPCFVPRP | 0.319 |
| RRIRGRPPRLPRPRPRPCGIPRP | 0.206 |
| RRIRGRPPRLPRPRPRPCGWPRP | 1.34 |
| RRIRGRPPRLPRPRPRPCHNPRP | 0.033 |
| RRIRGRPPRLPRPRPRPCIMPRP | 0.177 |
| RRIRGRPPRLPRPRPRPCLMPRP | 0.0827 |
| RRIRGRPPRLPRPRPRPCLYPRP | 0.0217 |
| RRIRGRPPRLPRPRPRPCMNPRP | 0.104 |
| RRIRGRPPRLPRPRPRPCMRPRP | 0.767 |
| RRIRGRPPRLPRPRPRPCMTPRP | 2.89 |
| RRIRGRPPRLPRPRPRPCQIPRP | -0.0259 |
| RRIRGRPPRLPRPRPRPCQMPRP | 0.215 |
| RRIRGRPPRLPRPRPRPCSKPRP | 0.09 |

| Sequence | shrunken log2 fold change |
| --- | --- |
| RRIRGRPPRLPRPRPRPCSMPRP | -0.0323 |
| RRIRGRPPRLPRPRPRPCSPPRP | 0.0454 |
| RRIRGRPPRLPRPRPRPDAAPRP | 3.73 |
| RRIRGRPPRLPRPRPRPDAIPRP | 1.38 |
| RRIRGRPPRLPRPRPRPDALPRP | 0.889 |
| RRIRGRPPRLPRPRPRPDAWPRP | 1.17 |
| RRIRGRPPRLPRPRPRPDCRPRP | 0.68 |
| RRIRGRPPRLPRPRPRPDDLPRP | 0.0487 |
| RRIRGRPPRLPRPRPRPDDSPRP | 0.121 |
| RRIRGRPPRLPRPRPRPDFMPRP | 0.545 |
| RRIRGRPPRLPRPRPRPDGLPRP | 0.053 |
| RRIRGRPPRLPRPRPRPDGTPRP | 1.02 |
| RRIRGRPPRLPRPRPRPDHTPRP | 0.0269 |
| RRIRGRPPRLPRPRPRPDLGPRP | 0.688 |
| RRIRGRPPRLPRPRPRPDLMPRP | 0.878 |
| RRIRGRPPRLPRPRPRPDMNPRP | 1.35 |
| RRIRGRPPRLPRPRPRPDMPPRP | 0.168 |
| RRIRGRPPRLPRPRPRPDMQPRP | 0.37 |
| RRIRGRPPRLPRPRPRPDNDPRP | 0.0238 |
| RRIRGRPPRLPRPRPRPDNLPRP | -0.226 |
| RRIRGRPPRLPRPRPRPDPGPRP | 0.616 |
| RRIRGRPPRLPRPRPRPDQDPRP | 1.06 |
| RRIRGRPPRLPRPRPRPDRPPRP | 0.376 |
| RRIRGRPPRLPRPRPRPDRTPRP | -0.0561 |
| RRIRGRPPRLPRPRPRPDSQPRP | 0.223 |

| Sequence | shrunken log2 fold change |
| --- | --- |
| RRIRGRPPRLPRPRPRPDVQPRP | 1.69 |
| RRIRGRPPRLPRPRPRPDVVPRP | 0.424 |
| RRIRGRPPRLPRPRPRPDWDPRP | 0.596 |
| RRIRGRPPRLPRPRPRPDYHPRP | -0.139 |
| RRIRGRPPRLPRPRPRPDYMPRP | -0.0973 |
| RRIRGRPPRLPRPRPRPDYPPRP | 0.121 |
| RRIRGRPPRLPRPRPRPEARPRP | 1.54 |
| RRIRGRPPRLPRPRPRPEAYPRP | 0.0504 |
| RRIRGRPPRLPRPRPRPECCPRP | 1.52 |
| RRIRGRPPRLPRPRPRPECSPRP | 1.2 |
| RRIRGRPPRLPRPRPRPECTPRP | 2.08 |
| RRIRGRPPRLPRPRPRPECVPRP | 1.72 |
| RRIRGRPPRLPRPRPRPEDHPRP | 0.536 |
| RRIRGRPPRLPRPRPRPEDIPRP | 0.165 |
| RRIRGRPPRLPRPRPRPEDPPRP | 1.38 |
| RRIRGRPPRLPRPRPRPEDYPRP | 0.555 |
| RRIRGRPPRLPRPRPRPEELPRP | 1.39 |
| RRIRGRPPRLPRPRPRPEFLPRP | 1.01 |
| RRIRGRPPRLPRPRPRPEGKPRP | 0.574 |
| RRIRGRPPRLPRPRPRPEHKPRP | 0.464 |
| RRIRGRPPRLPRPRPRPEHPPRP | 0.281 |
| RRIRGRPPRLPRPRPRPEHTPRP | 0.0464 |
| RRIRGRPPRLPRPRPRPEIAPRP | 1.86 |
| RRIRGRPPRLPRPRPRPEIDPRP | 1.63 |
| RRIRGRPPRLPRPRPRPEINPRP | 0.797 |
